Source: the MegaScale stability set (Tsuboyama et al. 2023)

B1: EHEE_rd4_0726 (parent)
chain: DIEITTNGEEDAKRVIKELQKRNLEYHIEVHGNQWVIKVR

Variants of: B1
Experiment: folding stability dG (cDNA display proteolysis); higher = more stable
Details: PBS, room temperature

Variant	folding stability dG [kcal/mol]
DIEITTNGEEDAKRVIKELQKRNLEVHIEVHGNQWVIKVR [Y26V]	1.42
DIEITTNGEEDAKRVIKELQKRNLEWHIEVHGNQWVIKVR [Y26W]	1.95
DIEITTNGEEDAKRVIKELQKRNLETHIEVHGNQWVIKVR [Y26T]	0.301
DIEITTNGEEDAKRVIKELQKRNLEYHIEVNGNQWVIKVR [H31N]	2.42
DIEITTNGEEDAKRVIKELQKRNLEYHIEVAGNQWVIKVR [H31A]	1.88
DIEITTNGEEDAKRVIKELQKRNLEYHIEVDGNQWVIKVR [H31D]	1.79
DIEITTNGEEDAKRVIKELQKRNLEYHIEVSGNQWVIKVR [H31S]	2.12
DIEITTNGEEDAKRVIKELQKRNLEYHIEVMGNQWVIKVR [H31M]	2.32
DIEITTNGEEDAKRVIKELQKRNLEYHIEVYGNQWVIKVR [H31Y]	2.26
DIEITTNGEEDAKRVIKELQKRNLEYHIEVQGNQWVIKVR [H31Q]	2.29
DIEITTNGEEDAKRVIKELQKRNLEYHIEVPGNQWVIKVR [H31P]	-0.6
DIEITTNGEEDAKRVIKELQKRNLEYHIEVGGNQWVIKVR [H31G]	0.973
DIEITTNGEEDAKRVIKELQKRNLEYHIEVFGNQWVIKVR [H31F]	2.36
DIEITTNGEEDAKRVIKELQKRNLEYHIEVWGNQWVIKVR [H31W]	2.08
DIEITTNGEEDAKRVIKELQKRNLEYHIEVRGNQWVIKVR [H31R]	2.97
DIEITTNGEEDAKRVIKELQKRNLEYHIEVIGNQWVIKVR [H31I]	2.72
DIEITTNGEEDAKRVIKELQKRNLEYHIEVEGNQWVIKVR [H31E]	1.68
DIEITTNGEEDAKRVIKELQKRNLEYHIEVTGNQWVIKVR [H31T]	2.17
DIEITTNGEEDAKRVIKELQKRNLEYHIEVVGNQWVIKVR [H31V]	2.61
DIEITTNGEEDAKRVIKELQKRNLEYHIEVLGNQWVIKVR [H31L]	2.27
DIEITTNGEEDAKRVIKELQKRNLEYHIEVCGNQWVIKVR [H31C]	2.31
DIEITTNGEEDAKRVIKELQKRNLEYHIEVKGNQWVIKVR [H31K]	2.5
DIEITTNGEEDAKRVIKELQKRNLEYHIVVHGNQWVIKVR [E29V]	2.3
DIEITTNGEEDAKRVIKELQKRNLEYHIFVHGNQWVIKVR [E29F]	2.27
DIEITTNGEEDAKRVIKELQKRNLEYHITVHGNQWVIKVR [E29T]	2.33

Variant	folding stability dG [kcal/mol]
DIEITTNGEEDAKRVIKELQKRNLEYHIDVHGNQWVIKVR [E29D]	1.56
DIEITTNGEEDAKRVIKELQKRNLEYHISVHGNQWVIKVR [E29S]	2.14
DIEITTNGEEDAKRVIKELQKRNLEYHINVHGNQWVIKVR [E29N]	1.41
DIEITTNGEEDAKRVIKELQKRNLEYHIAVHGNQWVIKVR [E29A]	1.71
DIEITTNGEEDAKRVIKELQKRNLEYHIYVHGNQWVIKVR [E29Y]	2.26
DIEITTNGEEDAKRVIKELQKRNLEYHIQVHGNQWVIKVR [E29Q]	2
DIEITTNGEEDAKRVIKELQKRNLEYHIIVHGNQWVIKVR [E29I]	2.32
DIEITTNGEEDAKRVIKELQKRNLEYHIRVHGNQWVIKVR [E29R]	1.77
DIEITTNGEEDAKRVIKELQKRNLEYHIWVHGNQWVIKVR [E29W]	1.82
DIEITTNGEEDAKRVIKELQKRNLEYHIMVHGNQWVIKVR [E29M]	1.93
DIEITTNGEEDAKRVIKELQKRNLEYHIHVHGNQWVIKVR [E29H]	1.78
DIEITTNGEEDAKRVIKELQKRNLEYHIKVHGNQWVIKVR [E29K]	1.66
DIEITTNGEEDAKRVIKELQKRNLEYHILVHGNQWVIKVR [E29L]	1.91
DIEITTNGEEDAKRVIKELQKRNLEYHIGVHGNQWVIKVR [E29G]	0.743
DIEITTNGEEDAKRVIKELQKRNLEYKIEVHGNQWVIKVR [H27K]	2.46
DIEITTNGEEDAKRVIKELQKRNLEYSIEVHGNQWVIKVR [H27S]	3.05
DIEITTNGEEDAKRVIKELQKRNLEYIIEVHGNQWVIKVR [H27I]	2.84
DIEITTNGEEDAKRVIKELQKRNLEYVIEVHGNQWVIKVR [H27V]	2.86
DIEITTNGEEDAKRVIKELQKRNLEYLIEVHGNQWVIKVR [H27L]	2.37
DIEITTNGEEDAKRVIKELQKRNLEYEIEVHGNQWVIKVR [H27E]	2.66
DIEITTNGEEDAKRVIKELQKRNLEYWIEVHGNQWVIKVR [H27W]	2.69
DIEITTNGEEDAKRVIKELQKRNLEYAIEVHGNQWVIKVR [H27A]	2.34
DIEITTNGEEDAKRVIKELQKRNLEYNIEVHGNQWVIKVR [H27N]	2.17
DIEITTNGEEDAKRVIKELQKRNLEYDIEVHGNQWVIKVR [H27D]	2.48
DIEITTNGEEDAKRVIKELQKRNLEYYIEVHGNQWVIKVR [H27Y]	2.73

Variant	folding stability dG [kcal/mol]
DIEITTNGEEDAKRVIKELQKRNLEYCIEVHGNQWVIKVR [H27C]	2.6
DIEITTNGEEDAKRVIKELQKRNLEYFIEVHGNQWVIKVR [H27F]	2.57
DIEITTNGEEDAKRVIKELQKRNLEYRIEVHGNQWVIKVR [H27R]	2.59
DIEITTNGEEDAKRVIKELQKRNLEYTIEVHGNQWVIKVR [H27T]	3.34
DIEITTNGEEDAKRVIKELQKRNLEYMIEVHGNQWVIKVR [H27M]	2.54
DIEITTNGEEDAKRVIKELQKRNLEYGIEVHGNQWVIKVR [H27G]	1.59
DIEITTNGEEDAKRVIKELQKRNLEYQIEVHGNQWVIKVR [H27Q]	2.45
DIEITTNGEEDAKRVIKELQKRNLEYHIEVHGWQWVIKVR [N33W]	1.83
DIEITTNGEEDAKRVIKELQKRNLEYHIEVHGVQWVIKVR [N33V]	1.76
DIEITTNGEEDAKRVIKELQKRNLEYHIEVHGFQWVIKVR [N33F]	2.06
DIEITTNGEEDAKRVIKELQKRNLEYHIEVHGKQWVIKVR [N33K]	1.92
DIEITTNGEEDAKRVIKELQKRNLEYHIEVHGQQWVIKVR [N33Q]	2.09
DIEITTNGEEDAKRVIKELQKRNLEYHIEVHGPQWVIKVR [N33P]	1.78
DIEITTNGEEDAKRVIKELQKRNLEYHIEVHGCQWVIKVR [N33C]	1.96
DIEITTNGEEDAKRVIKELQKRNLEYHIEVHGGQWVIKVR [N33G]	2.34
DIEITTNGEEDAKRVIKELQKRNLEYHIEVHGSQWVIKVR [N33S]	2.22
DIEITTNGEEDAKRVIKELQKRNLEYHIEVHGMQWVIKVR [N33M]	1.97
DIEITTNGEEDAKRVIKELQKRNLEYHIEVHGRQWVIKVR [N33R]	1.68
DIEITTNGEEDAKRVIKELQKRNLEYHIEVHGDQWVIKVR [N33D]	2.5
DIEITTNGEEDAKRVIKELQKRNLEYHIEVHGAQWVIKVR [N33A]	2
DIEITTNGEEDAKRVIKELQKRNLEYHIEVHGLQWVIKVR [N33L]	1.94
DIEITTNGEEDAKRVIKELQKRNLEYHIEVHGIQWVIKVR [N33I]	1.66
DIEITTNGEEDAKRVIKELQKRNLEYHIEVHGTQWVIKVR [N33T]	2.24
DIEITTNGEEDAKRVIKELQKRNLEYHIEVHGEQWVIKVR [N33E]	2.16
DIEITTNGEEDAKRVIKELQKRNLEYHIEVHGHQWVIKVR [N33H]	2.03

Variant	folding stability dG [kcal/mol]
DIEITTNGEEDAKRVIKELQKRNLEYHHEVHGNQWVIKVR [I28H]	-0.075
DIEITTNGEEDAKRVIKELQKRNLEYHYEVHGNQWVIKVR [I28Y]	1.48
DIEITTNGEEDAKRVIKELQKRNLEYHLEVHGNQWVIKVR [I28L]	2.02
DIEITTNGEEDAKRVIKELQKRNLEYHSEVHGNQWVIKVR [I28S]	0.224
DIEITTNGEEDAKRVIKELQKRNLEYHWEVHGNQWVIKVR [I28W]	1.24
DIEITTNGEEDAKRVIKELQKRNLEYHMEVHGNQWVIKVR [I28M]	1.61
DIEITTNGEEDAKRVIKELQKRNLEYHTEVHGNQWVIKVR [I28T]	1.09
DIEITTNGEEDAKRVIKELQKRNLEYHAEVHGNQWVIKVR [I28A]	1.04
DIEITTNGEEDAKRVIKELQKRNLEYHFEVHGNQWVIKVR [I28F]	1.48
DIEITTNGEEDAKRVIKELQKRNLEYHQEVHGNQWVIKVR [I28Q]	0.128
DIEITTNGEEDAKRVIKELQKRNLEYHKEVHGNQWVIKVR [I28K]	-0.291
DIEITTNGEEDAKRVIKELQKRNLEYHVEVHGNQWVIKVR [I28V]	2.53
DIEITTNGEEDAKRVIKELQKRNLEYHEEVHGNQWVIKVR [I28E]	-0.159
DIEITTNGEEDAKRVIKELQKRNLEYHIEIHGNQWVIKVR [V30I]	2.72
DIEITTNGEEDAKRVIKELQKRNLEYHIEMHGNQWVIKVR [V30M]	2.01
DIEITTNGEEDAKRVIKELQKRNLEYHIEAHGNQWVIKVR [V30A]	1.41
DIEITTNGEEDAKRVIKELQKRNLEYHIECHGNQWVIKVR [V30C]	2.23
DIEITTNGEEDAKRVIKELQKRNLEYHIEQHGNQWVIKVR [V30Q]	2.14
DIEITTNGEEDAKRVIKELQKRNLEYHIENHGNQWVIKVR [V30N]	1.57
DIEITTNGEEDAKRVIKELQKRNLEYHIEDHGNQWVIKVR [V30D]	0.526
DIEITTNGEEDAKRVIKELQKRNLEYHIEGHGNQWVIKVR [V30G]	0.63
DIEITTNGEEDAKRVIKELQKRNLEYHIEHHGNQWVIKVR [V30H]	1.94
DIEITTNGEEDAKRVIKELQKRNLEYHIEFHGNQWVIKVR [V30F]	2.06
DIEITTNGEEDAKRVIKELQKRNLEYHIESHGNQWVIKVR [V30S]	1.32
DIEITTNGEEDAKRVIKELQKRNLEYHIERHGNQWVIKVR [V30R]	2.43

Variant	folding stability dG [kcal/mol]
DIEITTNGEEDAKRVIKELQKRNLEYHIELHGNQWVIKVR [V30L]	1.86
DIEITTNGEEDAKRVIKELQKRNLEYHIEEHGNQWVIKVR [V30E]	1.16
DIEITTNGEEDAKRVIKELQKRNLEYHIEWHGNQWVIKVR [V30W]	1.81
DIEITTNGEEDAKRVIKELQKRNLEYHIEPHGNQWVIKVR [V30P]	0.866
DIEITTNGEEDAKRVIKELQKRNLEYHIEKHGNQWVIKVR [V30K]	2.36
DIEITTNGEEDAKRVIKELQKRNLEYHIEYHGNQWVIKVR [V30Y]	2.12
DIEITTNGEEDAKRVIKELQKRNLEYHIETHGNQWVIKVR [V30T]	1.71
DIEITTNGEEDAKRVIKELQKRNLEYHIEVHMNQWVIKVR [G32M]	1.43
DIEITTNGEEDAKRVIKELQKRNLEYHIEVHVNQWVIKVR [G32V]	1.08
DIEITTNGEEDAKRVIKELQKRNLEYHIEVHHNQWVIKVR [G32H]	1.39
DIEITTNGEEDAKRVIKELQKRNLEYHIEVHDNQWVIKVR [G32D]	1.85
DIEITTNGEEDAKRVIKELQKRNLEYHIEVHANQWVIKVR [G32A]	1.44
DIEITTNGEEDAKRVIKELQKRNLEYHIEVHINQWVIKVR [G32I]	1.21
DIEITTNGEEDAKRVIKELQKRNLEYHIEVHQNQWVIKVR [G32Q]	1.59
DIEITTNGEEDAKRVIKELQKRNLEYHIEVHNNQWVIKVR [G32N]	1.94
DIEITTNGEEDAKRVIKELQKRNLEYHIEVHPNQWVIKVR [G32P]	1
DIEITTNGEEDAKRVIKELQKRNLEYHIEVHLNQWVIKVR [G32L]	1.38
DIEITTNGEEDAKRVIKELQKRNLEYHIEVHYNQWVIKVR [G32Y]	1.19
DIEITTNGEEDAKRVIKELQKRNLEYHIEVHTNQWVIKVR [G32T]	1
DIEITTNGEEDAKRVIKELQKRNLEYHIEVHRNQWVIKVR [G32R]	1.09
DIEITTNGEEDAKRVIKELQKRNLEYHIEVHWNQWVIKVR [G32W]	0.99
DIEITTNGEEDAKRVIKELQKRNLEYHIEVHFNQWVIKVR [G32F]	1.51
DIEITTNGEEDAKRVIKELQKRNLEYHIEVHKNQWVIKVR [G32K]	1.35
DIEITTNGEEDAKRVIKELQKRNLEYHIEVHENQWVIKVR [G32E]	1.9
DIEITTNGEEDAKRVIKELQKRNLEYHIEVHSNQWVIKVR [G32S]	1.21
